# Several values for one entry are separate records, joined by “and”; a condition that tells them apart may be missing. Equal values may be shown once.
# T1: S100A9, P06702
# T1 chain: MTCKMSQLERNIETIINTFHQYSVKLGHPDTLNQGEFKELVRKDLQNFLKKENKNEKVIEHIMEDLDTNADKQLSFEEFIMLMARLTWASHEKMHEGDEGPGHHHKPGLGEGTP
# B1: S100A8 (natural protein, UniProt P05109 1-93, looked up)
# chain: MLTELEKALNSIIDVYHKYSLIKGNFHAVYRDDLKKLLETECPQYIRKKGADVWFKELDINTDGAVNFQEFLILVIKMGVAAHKKSHEESHKE
# notes: Commercial recombinant protein; source: bought: ProSpec-Tany TechnoGene
# B2: S100A9, P06702 1-114 (natural protein)
# chain: T1 chain
# Experiments:
# [1] = Degradation of the 2280 m/z peptide in BxPC3 conditioned media (MALDI-TOF/MS); assay type: in vitro ADME, human; settings: 37°C
# Procedure: (§1) To obtain BxPC3 and Capan1 conditioned media (CM), 400,000 cells were cultured (75 cm^2 flasks) for 96 hours in RPMI supplemented with 1% FCS and 0.1% gentamycin. In parallel, Ukrain (Nowicky Pharma, Wien, Austria) treated Capan1 CM were obtained as above, the difference being that Ukrain was added 24 hours after cells had been seeded at the final concentration of 5 μM. Complete culture media maintained in a cell culture incubator for 96 hours (negative control), Capan1 and Ukrain-treated Capan1 CM were centrifuged at 1,500 rpm for 10 min, and then immediately mixed with 3 μM S100A8 or 2.5 μM S100A9 (ProSpec-Tany TechnoGene, Ness Ziona, Israel) and maintained at 37°C overnight before MALDI-TOF/MS analyses. Complete culture media, BxPC3 and Capan1 CM, treated as described above, were incubated at 37°C with 200 μM of the S100A8 1–19 N-terminal aminoacid sequence (NT-S100A8) (Primm, Milano, Italy) for 1, 2, 3, 4, 5, 6, 12 and 24 hours before MALDI-TOF/MS analyses. At least three independent sets of experiments were performed for both assays.
# (§2) Cell culture media were first desalted and purified by ZipTip C18 pipette tips, following the procedure described in the ZipTip user’s guide. […]
# [2] = Stability of the 2280 m/z peptide in non-conditioned media (MALDI-TOF/MS); assay type: in vitro ADME; settings: 200 μM, 37°C, time 0, MALDI-TOF/MS
# Procedure: as §1, §2
# [3] = Degradation of the 2280 m/z peptide in Capan1 conditioned media (MALDI-TOF/MS); assay type: in vitro ADME, human; settings: 37°C
# Procedure: as §1, §2
# [4] = biological target: the molecule itself; assay: MALDI-TOF/MS of mixtures (linear positive ion mode); proteins and CaCl2 mixed at equimolar concentration (11.3 μM) in aqueous solution, incubated overnight at 37°C, diluted 1/10 in 0.1% TFA, sinapinic acid matrix
# S100A9, P06702 = biological target: T1, S100A9, P06702; assay: as above; settings: remark: other sources report otherwise
molecule,measurement,setting,value
"2280 m/z peptide: synthesized 1–19 N-terminal aminoacid sequence of S100A8, released by Capan1 conditioned medium (MLTELEKALNSIIDVYHKY; UniProt P05109 1-19, looked up, fragment)",time of degradation of the parental 2280 m/z peptide,"[1]; 200 μM peptide in BxPC3 conditioned media (96 h, RPMI 1% FCS), MALDI-TOF/MS, TIC normalized",12 h
same,parental 19 aminoacid peptide after 24 hours' incubation,"[1]; 200 μM, BxPC3 conditioned media, 24 hours, MALDI-TOF/MS 650–3000 m/z",disappeared
same,abundance of the parental peptide at 2280 m/z (TIC normalized),[2],0.99
same,time of degradation of the parental 2280 m/z peptide,"[3]; 200 μM peptide in Capan1 conditioned media (96 h, RPMI 1% FCS), MALDI-TOF/MS, TIC normalized",2 h
same,parental 19 aminoacid peptide after 24 hours' incubation,"[3]; 200 μM, Capan1 conditioned media, 24 hours, MALDI-TOF/MS 650–3000 m/z",disappeared
B1,stoichiometry N,[4],2
B2,stoichiometry N,"S100A9, P06702",2 and 3
